{
  "source": "patent CN113817063A",
  "about": "(XIAMEN INNOBIOMAX BIOTECHNOLOGY CO LTD, dated 2021)",
  "binders": {"B1": {"name": "抗人DCP单克隆抗体10D9-1 (antibody, IgG1, V domains shown)", "VH": "EVQLQQSGPELVKPGASVKMSCKASGYTFTSYVMHWVKQKPGQGLEWIGYIFPYNDVTEYNEKFKGKATLTSDKSSSTAYMELSSLTSEDSAVYYCARWGGRNYWGQGTSVTV", "VL": "not shown", "notes": "also called 抗人异常凝血酶原单克隆抗体; 10D9-1-HRP"}},
  "key": {"DP1 (DCP 1-15 15肽)": {"biological_target": "T1, DP1 (DCP 1-15 15肽) (human)", "T1 peptide": "ANTFLEEVRKGNLER", "test": "peptide competition ELISA on coated 抗原1"}, "DP2 (DCP 11-25 15肽)": {"biological_target": "T2, DP2 (DCP 11-25 15肽) (human)", "T2 peptide": "GNLERECVEETCSYE", "test": "peptide competition ELISA on coated 抗原1"}, "DP3 (DCP 21-35 15肽)": {"biological_target": "T3, DP3 (DCP 21-35 15肽) (human)", "T3 peptide": "TCSYEEAFEALESST", "test": "peptide competition ELISA on coated 抗原1"}, "DP5 (DCP 41-55 15肽)": {"biological_target": "T4, DP5 (DCP 41-55 15肽) (human)", "T4 peptide": "WAKYTACETARTPRD", "test": "peptide competition ELISA on coated 抗原1"}, "DP42 (DCP 32-39 8肽) [1]": {"biological_target": "T5, DP42 (DCP 32-39 8肽) (human)", "T5 peptide": "ESSTATDV", "test": "8-mer peptide competition ELISA on coated 抗原1"}, "DP45 (DCP 35-42 8肽) [2]": {"biological_target": "T6, DP45 (DCP 35-42 8肽) (human)", "T6 peptide": "TATDVFWA", "test": "8-mer peptide competition ELISA on coated 抗原1"}, "DP46 (DCP 36-43 8肽) [3]": {"biological_target": "T7, DP46 (DCP 36-43 8肽) (human)", "T7 peptide": "ATDVFWAK", "test": "8-mer peptide competition ELISA on coated 抗原1"}, "DP47 (DCP 37-44 8肽) [4]": {"biological_target": "T8, DP47 (DCP 37-44 8肽) (human)", "T8 peptide": "TDVFWAKY", "test": "8-mer peptide competition ELISA on coated 抗原1"}, "DP48 (DCP 38-45 8肽) [5]": {"biological_target": "T9, DP48 (DCP 38-45 8肽) (human)", "T9 peptide": "DVFWAKYT", "test": "8-mer peptide competition ELISA on coated 抗原1"}, "DP41 (DCP 31-38 8肽) [6]": {"biological_target": "T10, DP41 (DCP 31-38 8肽) (human)", "T10 peptide": "LESSTATD", "test": "8-mer peptide competition ELISA on coated 抗原1"}, "[7]": {"biological_target": "T11, 人异常凝血酶原 (Des-γ-carboxyprothrombin) (human, UniProt P00734 44-622, 第6，7，14，16，19，20，25，26，29和32位的Glu残基一个或多个羧化不全 (not fully gamma-carboxylated))", "T11 construct": "also called DCP; PIVKA-II", "test": "sandwich ELISA, 11H8-3 capture, 10D9-1-HRP detection, DCP in controls and sera"}, "DP42 (DCP 32-39 8肽) [8]": {"biological_target": "T5, DP42 (DCP 32-39 8肽)", "test": "competition ELISA: 100ng/ml antibody pre-incubated with 50ug/ml 8-mer peptide, read on coated 抗原1"}, "DP43 (DCP 33-40 8肽)": {"biological_target": "T12, DP43 (DCP 33-40 8肽) (human)", "T12 peptide": "SSTATDVF", "test": "competition ELISA: 100ng/ml antibody pre-incubated with 50ug/ml 8-mer peptide, read on coated 抗原1"}, "DP44 (DCP 34-41 8肽)": {"biological_target": "T13, DP44 (DCP 34-41 8肽) (human)", "T13 peptide": "STATDVFW", "test": "competition ELISA: 100ng/ml antibody pre-incubated with 50ug/ml 8-mer peptide, read on coated 抗原1"}, "DP45 (DCP 35-42 8肽) [9]": {"biological_target": "T6, DP45 (DCP 35-42 8肽)", "test": "competition ELISA: 100ng/ml antibody pre-incubated with 50ug/ml 8-mer peptide, read on coated 抗原1"}, "DP46 (DCP 36-43 8肽) [10]": {"biological_target": "T7, DP46 (DCP 36-43 8肽)", "test": "competition ELISA: 100ng/ml antibody pre-incubated with 50ug/ml 8-mer peptide, read on coated 抗原1"}, "DP47 (DCP 37-44 8肽) [11]": {"biological_target": "T8, DP47 (DCP 37-44 8肽)", "test": "competition ELISA: 100ng/ml antibody pre-incubated with 50ug/ml 8-mer peptide, read on coated 抗原1"}, "DP48 (DCP 38-45 8肽) [12]": {"biological_target": "T9, DP48 (DCP 38-45 8肽)", "test": "competition ELISA: 100ng/ml antibody pre-incubated with 50ug/ml 8-mer peptide, read on coated 抗原1"}, "DP41 (DCP 31-38 8肽) [13]": {"biological_target": "T10, DP41 (DCP 31-38 8肽)", "test": "competition ELISA: 100ng/ml antibody pre-incubated with 50ug/ml 8-mer peptide, read on coated 抗原1"}},
  "data": [
    {"binder": "B1", "values": [
      {"measurement": "binding result", "setting": "DP1 (DCP 1-15 15肽)", "value": "no binding (tested: 判定标准为:大于90%以上显示有良好的竞争效果; 50ug/ml多肽)"},
      {"measurement": "binding result", "setting": "DP2 (DCP 11-25 15肽)", "value": "no binding (tested: 判定标准为:大于90%以上显示有良好的竞争效果; 50ug/ml多肽)"},
      {"measurement": "binding result", "setting": "DP3 (DCP 21-35 15肽)", "value": "no binding (tested: 判定标准为:大于90%以上显示有良好的竞争效果; 50ug/ml多肽)"},
      {"measurement": "binding result", "setting": "DP5 (DCP 41-55 15肽)", "value": "no binding (tested: 判定标准为:大于90%以上显示有良好的竞争效果; 50ug/ml多肽)"},
      {"measurement": "binding result", "setting": "DP42 (DCP 32-39 8肽) [1]", "value": "no binding (tested: 50ug/ml多肽)"},
      {"measurement": "binding result", "setting": "DP45 (DCP 35-42 8肽) [2]", "value": "no binding (tested: 50ug/ml多肽)"},
      {"measurement": "binding result", "setting": "DP46 (DCP 36-43 8肽) [3]", "value": "no binding (tested: 50ug/ml多肽)"},
      {"measurement": "binding result", "setting": "DP47 (DCP 37-44 8肽) [4]", "value": "no binding (tested: 50ug/ml多肽)"},
      {"measurement": "binding result", "setting": "DP48 (DCP 38-45 8肽) [5]", "value": "no binding (tested: 50ug/ml多肽)"},
      {"measurement": "binding result", "setting": "DP41 (DCP 31-38 8肽) [6]", "value": "no binding (tested: 50ug/ml多肽)"},
      {"measurement": "binding result", "setting": "[7]", "value": "binds"},
      {"measurement": "competition rate (对照样品OD值-检测样品OD值)/对照样品OD值", "setting": "DP42 (DCP 32-39 8肽) [8]", "value": 10, "unit": "%"},
      {"measurement": "competition rate (对照样品OD值-检测样品OD值)/对照样品OD值", "setting": "DP43 (DCP 33-40 8肽)", "value": 33, "unit": "%"},
      {"measurement": "competition rate (对照样品OD值-检测样品OD值)/对照样品OD值", "setting": "DP44 (DCP 34-41 8肽)", "value": 29, "unit": "%"},
      {"measurement": "competition rate (对照样品OD值-检测样品OD值)/对照样品OD值", "setting": "DP45 (DCP 35-42 8肽) [9]", "value": -9, "unit": "%"},
      {"measurement": "competition rate (对照样品OD值-检测样品OD值)/对照样品OD值", "setting": "DP46 (DCP 36-43 8肽) [10]", "value": 4, "unit": "%"},
      {"measurement": "competition rate (对照样品OD值-检测样品OD值)/对照样品OD值", "setting": "DP47 (DCP 37-44 8肽) [11]", "value": 11, "unit": "%"},
      {"measurement": "competition rate (对照样品OD值-检测样品OD值)/对照样品OD值", "setting": "DP48 (DCP 38-45 8肽) [12]", "value": 10, "unit": "%"},
      {"measurement": "competition rate (对照样品OD值-检测样品OD值)/对照样品OD值", "setting": "DP41 (DCP 31-38 8肽) [13]", "value": -2, "unit": "%"}
    ]}
  ]
}
